Reference: patent publication US8710032B2, “Inhibitors of the mevalonate pathway of Streptococcus pneumoniae” (Northwestern University, priority 2006, dated 2014)

Substrate: Nc1ncnc2c1ncn2[C@@H]1O[C@H](COP(=O)(O)OP(=O)(O)OP(=O)(O)O)[C@@H](O)[C@H]1O
Assay: Initial substrate results of analogues with mevalonate kinase (FIG. 8)
Type: biochemical, Streptococcus pneumoniae
Conditions: other: ATP
Description: FIG. 8. Initial substrate results [analogue] ranged from 2.0-2.5 mM, except #6 (4.2 mM) and #8 (6.2 mM).
A series of compounds related to compounds 4, 5, 23, and 25 can be synthesized as potential competitive or noncompetitive reversible inhibitors of MK and DPM-DC (See, e.g., FIGS. 6-7). The representative synthesis shown (Scheme 4a) is a modification of that shown in Scheme 4, and R is limited only by availability of the corresponding reagent and synthetic technique, as would be understood by those skilled in the art made aware of this invention (e.g., alkyl, vinyl, acetylenyl, aryl, heteroaryl, etc., via Grignard reaction with the corresponding magnesium bromide or chloride).

B1: mevalonate kinase (Streptococcus pneumoniae TIGR4) (protein)
chain: MTKKVGVGQAHSKIILIGEHAVVYGYPAISLPLLEVEVTCKVVPAESPWRLYEEDTLSMAVYASLEYLNITEACIRCEIDSAIPEKRGMGSSAAISIAAIRAVFDYYQADLPHDVLEILVNRAEMIAHMNPSGLDAKTCLSDQPIRFIKNVGFTELEMDLSAYLVIADTGVYGHTREAIQVVQNKGKDALPFLHALGELTQQAEVAISQKDAEGLGQILSQAHLHLKEIGVSSPEADFLVETTLSHGALGAKMSGGGLGGCIIALVTNLTHAQELAERLEEKGAVQTWIESL
Protein B1 has a Km of 850 µM.
